Test results taken from publication PMC6650482, “Tyrosine 51 residue of the syndecan-2 extracellular domain is involved in the interaction with and activation of pro-matrix metalloproteinase-7” (Scientific Reports, 2019).
Where a chain is given by its changes, count along the chain named. Names may count otherwise. “Also recorded” adds a separate entry of the source.

Columns and labels:
GST-SDC-2 = test: In vitro binding of MMP-7 pro-domain fragments to GST-SDC2; parameters: species or system human; conditions: GST-SDC-2, glutathione-agarose beads, anti-His immunoblot
Protocol: (§1) Figure 4 The α2–3 helix of the MMP-7 pro-domain is involved in its interaction with the syndecan-2 extracellular domain. (A) Structure of the MMP-7 pro-domain (PDB; 2MZE) and schematic diagram of the MMP-7 pro-domain (PD) and its deletion mutants. The indicated MMP-7 pro-domain mutants were purified with Ni-NTA agarose beads, separated by SDS-PAGE. Purified MMP-7 pro-domain mutants were incubated with GST-SDC-2. Materials bound to glutathione-agarose beads were immunoblotted with an anti-His tag antibody and the membranes were stripped and re-probed with an anti-GST antibody. Image is of a single membrane cropped to remove intervening lanes. (B) Purified GST-SDC2 mutants were incubated with His-tagged α2–3 helix of the MMP-7 pro-domain. Materials bound to glutathione-agarose beads were immunoblotted with an anti-His tag antibody (top) and the membranes were then stripped and re-probed with an anti-GST antibody (bottom). (C) The secondary structure of the α2–3 helix of the MMP-7 pro-domain was analyzed using CD in the presence of different concentrations of TFE (top). Quantitative estimations of the secondary-structure content were made with the CDPro software package, which includes the programs CDSSTR, CONTIN, and SELCON3. […] Smaller values of NRMSD indicate closer correspondence between calculated structures and the experimental data.

[1] = Circular dichroism secondary structure; assay type: physicochemical
Protocol: Figure 2 The pro-domain of MMP-7 is involved in its interaction with the syndecan-2 extracellular domain. (A) Schematic representations of the pro-domain of MMP-7 (PD) and the deletion mutants lacking the pro-domain, N-terminus (ΔN), C-terminus (ΔC) and both N- and C-terminus (ΔNC) (top). His-tagged MMP-7 pro-domain was purified with Ni-NTA agarose beads, separated by SDS-PAGE and stained with Coomassie Blue (bottom). (B) Purified GST-S2E, S2E-C and S2E-NII were incubated with His-tagged PD, or ΔN, ΔC or ΔNC MMP-7 pro-domain. Materials bound to glutathione-agarose beads were immunoblotted with an anti-His tag antibody (top). The membranes were then stripped and re-probed with an anti-GST antibody (bottom). […] Absorbance was measured at 450 nm. […]
Figure 4 The α2–3 helix of the MMP-7 pro-domain is involved in its interaction with the syndecan-2 extracellular domain. […] (C) The secondary structure of the α2–3 helix of the MMP-7 pro-domain was analyzed using CD in the presence of different concentrations of TFE (top). Quantitative estimations of the secondary-structure content were made with the CDPro software package, which includes the programs CDSSTR, CONTIN, and SELCON3. […] Smaller values of NRMSD indicate closer correspondence between calculated structures and the experimental data. […]

[2] = tested on: N-terminus of the extracellular domain of syndecan-2; test: In vitro binding of MMP-7 α2–3 helix with N-terminus of the syndecan-2 extracellular domain; parameters: species or system human; conditions: His-tagged α2–3, GST-SDC2 mutants, anti-His immunoblot
Protocol: as §1

[3] = biological target: His-tagged pro-domain of MMP-7 (His-PD) (human, UniProt P09237 18-267, Limits are the UniProt activation peptide. Paper's NMR numbering + 24 = precursor numbering (Gln7=Q31, Glu32=E56, Gly48=G72, Ser52=S76). Deletion-construct numbering implies a PD of about 79 residues,); test: other fluorescence titration; tryptophan quenching; 15 uM His-PD, S2-P titrated up to 1:200 molar ratio; PBS pH 7.4, 298 K; excitation 280 nm, intensity at 347 nm; conditions: both partners purified
[4] = biological target: T1, His-tagged pro-domain of MMP-7 (His-PD) (Homo sapiens, UniProt P09237); test: In vitro binding (GST pulldown / anti-His immunoblot) with His-PD; conditions: GST-tagged proteins
T1 construct: His tag; pET32a(+) vector-encoded fusion part (thioredoxin/S-tag by own knowledge of the vector); made in house
T1 sequence (P09237 18-94 limits assumed): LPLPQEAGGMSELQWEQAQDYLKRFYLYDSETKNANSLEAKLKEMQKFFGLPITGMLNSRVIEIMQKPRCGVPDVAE
Excerpt: Figure 1 The N-terminus of syndecan-2 interacts with the pro-domain of MMP-7. (A) Schematic representation of the syndecan-2 core protein (SDC2) and MMP-7. The signal peptide (SP), the extracellular domain (EC), the transmembrane domain (TM), and the cytoplasmic domain (CT) of syndecan-2 are noted, and the various deletion mutants are indicated. A peptide corresponding to residues 41–60 of the syndecan-2 extracellular domain (S2-P) was synthesized. Syndecan-2 is labeled with amino acid numbers to show the location of each deletion (left). Schematic representation of MMP-7. The pre-domain (Pre), pro-domain (PD), and catalytic domain are shown (right top). Purified GST-SDC2 mutants and the His-tagged pro-domain of MMP-7 were separated by 15% SDS-PAGE and stained with Coomassie Blue (right bottom). (B) Purified GST or GST-SDC2 mutants were incubated with His-tagged pro-domain of MMP-7 (His-PD). Bound materials were subjected to immunoblotting with an anti-His tag antibody (top). The membranes were then stripped and re-probed with an anti-GST antibody (bottom). (C) Purified GST-SDC2 was incubated with purified His-PD MMP-7 plus the indicated amounts of S2-P for 2 h at 4 °C. Bound materials were subjected to immunoblotting with an anti-His tag antibody (top). […] (D) Fluorescence spectroscopy indicates the binding affinity between His-PD and S2-P peptide. […]

[5] = tested on: His-tagged ΔNC MMP-7 pro-domain; test: In vitro binding of GST-SDC2 mutants to His-ΔNC; parameters: species or system human; conditions: 2 h at 4 °C, immunoblot
Protocol: Figure 2 The pro-domain of MMP-7 is involved in its interaction with the syndecan-2 extracellular domain. (A) Schematic representations of the pro-domain of MMP-7 (PD) and the deletion mutants lacking the pro-domain, N-terminus (ΔN), C-terminus (ΔC) and both N- and C-terminus (ΔNC) (top). His-tagged MMP-7 pro-domain was purified with Ni-NTA agarose beads, separated by SDS-PAGE and stained with Coomassie Blue (bottom). (B) Purified GST-S2E, S2E-C and S2E-NII were incubated with His-tagged PD, or ΔN, ΔC or ΔNC MMP-7 pro-domain. Materials bound to glutathione-agarose beads were immunoblotted with an anti-His tag antibody (top). The membranes were then stripped and re-probed with an anti-GST antibody (bottom). (C) ELISA plates coated with 600 ng of S2-P were incubated with the indicated His-tagged MMP-7 pro-domains (500 ng/well) for 2 h at 20 °C. The plates were washed, incubated with an anti-His tag antibody followed by IgG-HRP, and developed with TMB-ELISA. Absorbance was measured at 450 nm. Data are shown as mean ± S.D. (n = 3), *p < 0.05 versus blank. (D) Purified GST-SDC2 was mixed with His-tagged ΔNC for 2 h at 4 °C., separated by SDS-PAGE, and immunoblotted with anti-His or -GST antibodies. (E) The secondary structures of the MMP-7 pro-domain mutants of ΔN, ΔC and ΔNC were diluted to 50 μM in a buffer consisting of 10 mM HEPES and 20 mM NaCl, pH 8, and kept at 20 °C. […]

[6] = tested on: His-tagged α2–3 helix of the MMP-7 pro-domain; test: In vitro binding of GST-SDC2 proteins to His-tagged α2–3; parameters: species or system human; conditions: 2 h at 4 °C, glutathione-agarose beads, immunoblot
Protocol: as §1, with “data. […]” for “data.”

Chain of His-tagged pro-domain of MMP-7 (His-PD) (human, UniProt P09237 18-267, Limits are the UniProt activation peptide. Paper's NMR numbering + 24 = precursor numbering (Gln7=Q31, Glu32=E56, Gly48=G72, Ser52=S76). Deletion-construct numbering implies a PD of about 79 residues,) (P09237 18-267): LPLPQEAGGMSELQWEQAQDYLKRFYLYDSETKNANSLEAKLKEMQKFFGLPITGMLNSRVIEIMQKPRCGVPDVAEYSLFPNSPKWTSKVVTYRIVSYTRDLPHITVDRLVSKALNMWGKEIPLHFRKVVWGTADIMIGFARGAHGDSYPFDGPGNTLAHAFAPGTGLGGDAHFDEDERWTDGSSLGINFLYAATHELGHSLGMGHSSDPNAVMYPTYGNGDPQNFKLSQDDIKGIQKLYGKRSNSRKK

α2–3: α2 helix-loop-α3 helix protein fragment of the MMP-7 pro-domain
interaction with syndecan-2 (pulldown, qualitative) (GST-SDC-2): interacted with syndecan-2, although to a slightly weaker degree than ΔNC; also recorded: interacted with recombinant syndecan-2 in vitro
helicity ([1]; CD, α-helical fraction from CDPro, without TFE): 75%
secondary structure by CD (qualitative) ([1]; far-UV CD, pro-domain mutants at 50 μM, 10 mM HEPES, 20 mM NaCl, pH 8, 20 °C (Fig. 2E), α2–3 in Fig. 4C): had a helical structure, as suggested by the presence of minima (negative peaks) at 208 and 222 nm
interaction with the N-terminus of the extracellular domain of syndecan-2 (pulldown, qualitative) [2]: interacted with the N-terminus of the extracellular domain of syndecan-2

B1: synthetic human syndecan-2 peptide (S2-P), extracellular domain residues 41-60 (peptide)
peptide: SGVYPIDDDDYASASGSGAD
notes: human syndecan-2 extracellular domain residues 41-60; also called S2-P peptide; source: synthetic peptide (Fmoc solid-phase, Anygen Inc.)
Kd [3]: 1586 ± 12 µM

B2: S2E: GST-tagged syndecan-2 extracellular domain (protein)
chain: ESRAELTSDKDMYLDNSSIEEASGVYPIDDDDYASASGSGADEDVESPELTTSRPLPKILLTSAAPKVETTTLNIQNKIPAQTKSPEETDKEKVHLSDSERKMDPAEEDTNVYTEKHSDSLFKRTE
modifications: left off: GST, end not stated, kept
notes: GST-tagged syndecan-2 extracellular domain
interaction with His-PD (pulldown, qualitative) [4]: interacted with the pro-domain of MMP-7

B3: D49A: substitution of Asp49 with Ala in the syndecan-2 extracellular domain (protein)
chain: B2 chain with D31A
modifications: left off: GST, end not stated, kept
notes: substitution of Asp49 with Ala in the syndecan-2 extracellular domain
interaction with His-tagged ΔNC (pulldown, qualitative) [5]: did not affect its interaction

B4: Y51A: substitution of Tyr51 with Ala in the syndecan-2 extracellular domain (protein)
chain: B2 chain with Y33A
modifications: left off: GST, end not stated, kept
notes: substitution of Tyr51 with Ala in the syndecan-2 extracellular domain
interaction with α2–3 (pulldown, qualitative) [6]: failed to interact with the α2–3
interaction with His-tagged ΔNC (pulldown, qualitative) [5]: significantly reduced the interaction

B5: recombinant syndecan-2: Purified GST-SDC2 (protein, UniProt P34741 19-201, looked up)
Syndecan-2: ESRAELTSDKDMYLDNSSIEEASGVYPIDDDDYASASGSGADEDVESPELTTSRPLPKILLTSAAPKVETTTLNIQNKIPAQTKSPEETDKEKVHLSDSERKMDPAEEDTNVYTEKHSDSLFKRTEVLAAVIAGGVIGFLFAIFLILLLVYRMRKKDEGSYDLGERKPSSAAYQKAPTKEFYA
modifications: GST tag
notes: Purified GST-SDC2
interaction with α2–3 (pulldown, qualitative) [6]: interacted with the α2–3
